Laboratory results as given in publication PMC3924863 (Cancer research, 2013).

Legend:
[1] = molecular target: T1, recombinant monomeric human HER3 extracellular domain (human, UniProt P21860); assay: solution equilibrium titration
[2] = molecular target: recombinant mouse HER3 extracellular domain (Mus musculus, UniProt Q61526); assay: solution equilibrium titration
[3] = molecular target: recombinant monomeric rat HER3 extracellular domain (Rattus norvegicus, UniProt Q62799); assay: solution equilibrium titration
[4] = molecular target: recombinant monomeric cynomolgus monkey HER3 extracellular domain (cynomolgus monkey); assay: solution equilibrium titration
[5] = molecular target: Fc-tagged HER4 extracellular domain (Homo sapiens (assumed), UniProt Q15303); assay: ELISA
[6] = molecular target: Fc-tagged HER2 extracellular domain (Homo sapiens (assumed), UniProt P04626); assay: ELISA
[7] = molecular target: Fc-tagged EGFR extracellular domain (Homo sapiens (assumed), UniProt P00533); assay: ELISA
[8] = molecular target: T1, recombinant monomeric human HER3 …; assay: ELISA
[9] = molecular target: isolated HER3 domains D3-4 (Homo sapiens, UniProt P21860); assay: ELISA

Kd [1] [nM] | Kd [2] [nM] | Kd [3] [nM] | Kd [4] [nM] | binding result [5] | binding result [6] | binding result [7] | binding result [8] | binding result [9] | Binder
0.032 | 0.037 | 0.057 | 0.043 | no binding | no binding | no binding |  |  | LJM716 (antibody, V domains shown) VH: EVQLLESGGGLVQPGGSLRLSCAASGFTFSSYAMSWVRQAPGKGLEWVSAINSQGKSTYYADSVKGRFTISRDNSKNTLYLQMNSLRAEDTAVYYCARWGDEGFDIWGQGTLVTVSS VL: DIQMTQSPSSLSASVGDRVTITCRASQGISNWLAWYQQKPGKAPKLLIYGASSLQSGVPSRFSGSGSGTDFTLTISSLQPEDFATYYCQQYSSFPTTFGQGTKVEIK
 |  |  |  |  |  |  | binds | no binding | MOR09825 Fab (Fab, V domains shown) VH: QVQLVESGGGLVQPGGSLRLSCAASGFTFSSYAMSWVRQAPGKGLEWVSAINSQGKSTYYADSVKGRFTISRDNSKNTLYLQMNSLRAEDTAVYYCARWGDEGFDIWGQGTLVTVSS VL: DIQMTQSPSSLSASVGDRVTITCRASQGISNWLAWYQQKPGKAPKLLIYGASSLQSGVPSRFSGSGSGTDFTLTISSLQPEDFAVYYCQQYSSFPTTFGQGTKVEIK
